{"source": "patent US20210179716A1", "key": {"[1]": {"molecular_target": "human CD47 on the cell surface (human)", "experiment": "cell binding to HT1080 tumor cells in a 1:10 mixture with red blood cells"}, "[2]": {"molecular_target": "human CD47 on the cell surface (human)", "experiment": "cell binding to red blood cells in a 1:10 mixture of HT1080 cells and red blood cells"}}, "data": [{"substance": "monospecific anti-CD47 mAb 5F9 (antibody)", "values": [{"measurement": "EC50", "setting": "[1]", "result": "< 0.1", "unit": "nM"}, {"measurement": "EC50", "setting": "[2]", "result": "< 0.1", "unit": "nM"}]}]}
